Data reported in patent US20100233157A1 (published 2010).

How the values were obtained:
[1] = molecular target: T1, JPT31 peptide (human); experiment: peptide microarray (JPT), 50 ug/ml antibody
T1 construct: Peptide of the human Fas peptide scan, immobilized on a glass microarray (JPT peptide technologies)
T1 peptide: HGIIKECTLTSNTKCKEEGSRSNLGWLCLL
Description: (§1) Epitope mapping of F45D9-γ1 and F45D9-γ4 mAb was done using peptide microarrays from JPT peptide technologies. The microarray is composed of several different peptide scans of TNR6_Human protein (FAS molecule, accession number P25445; Oehm A. et al. J. Biol. Chem. 267:10709, 1992), immobilized on a glass surface. The microarrays were pre-treated 2 h at room temperature with blocking buffer (Pierce, Superblock), followed by washings with TBS buffer, pH 8.0 and water (3 times each). Pre-treated arrays were scanned using Axon-4000B-Microarray Scanner for background control. […] Control incubation with secondary antibody only was performed in parallel. All microarrays were scanned using Axon-4000B-Microarray Scanner with appropriate wavelength settings. SPOT recognition software package ArrayPro was used for data analysis. Mean of signal intensities from 3 identical subarrays on each microarray image were used for data evaluation.

[2] = molecular target: T2, JPT32 peptide (human); experiment: peptide microarray (JPT), 50 ug/ml antibody
T2 construct: Peptide of the human Fas peptide scan, immobilized on a glass microarray (JPT peptide technologies)
T2 peptide: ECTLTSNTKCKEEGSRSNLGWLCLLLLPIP
Description: as §1

[3] = molecular target: T3, JPT33 peptide (human); experiment: peptide microarray (JPT), 50 ug/ml antibody
T3 construct: Peptide of the human Fas peptide scan, immobilized on a glass microarray (JPT peptide technologies)
T3 peptide: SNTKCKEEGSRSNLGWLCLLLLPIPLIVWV
Description: as §1

[4] = molecular target: T4, Recombinant human soluble Fas receptor (PeproTech, Cat. 310-20) (human, UniProt P25445 17-173); experiment: SPR (BIAcore 3000), soluble Fas immobilized on CM5 chip, antibody as analyte, bivalent analyte fit
T4 construct: Bought soluble form; also called sFas; rFas
T4 sequence (looked up): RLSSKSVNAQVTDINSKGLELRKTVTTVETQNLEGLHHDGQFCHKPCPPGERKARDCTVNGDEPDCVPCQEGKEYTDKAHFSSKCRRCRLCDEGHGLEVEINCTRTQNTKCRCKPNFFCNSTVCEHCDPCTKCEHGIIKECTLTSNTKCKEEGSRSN
Description: The interaction of F45D9 mAb's (γ-γ1 and γ4-isotypes) with immobilized soluble human Fas receptor was monitored by surface plasmon resonance detection using a BIAcore 3000 instrument. Recombinant human soluble Fas receptor (srFas) (PeproTech, cat. 310-20) was immobilized (concentration of 5 ug/ml in immobilization buffer: 10 mM sodium acetate pH 5.0) onto a CM5 sensor chip (BIAcore BR-1001-14) using an Amine Coupling kit (BIAcore, Cat. BR-1000-50), at a surface density of […] resonance units (RU). Deactivation of excess reactive groups on the chip surface was done by adding 1.0 M ethalonamine hydrochloride (pH 8.5). F45D9 mAb's-γ1 mAb were passed over the surface in equilibrium binding experiments at concentrations ranging from […] at a flow rate of 30 ul/min. Dilutions and binding experiments were conducted in 0.01 M HEPES (pH 7.4), 0.15 M NaCl, 3 mM EDTA, and 0.005% P-20 (BIAcore surfactant, BR-1001-88). Between each cycle 100 mM HCl was used to regenerate the surfaces at a flow rate 30 ul/min. KA and KD of F45D9 mAb's were-γ1 mAb was determined by fitting bivalentusing BIAcore models (BIAevaluation).

[5] = molecular target: T5, Common marmoset Fas on the cell surface (common marmoset (Callithrix jacchus)); experiment: flow cytometry on the marmoset B cell line 9505, FITC anti-human IgG secondary, MFI after subtraction of the control human γ1 staining
T5 construct: whole, on cells
Text: (§2) Reactivity of F45D9-γ1 or F45D9-γ4 mAb with Fas molecules of various species was initially screened using primary blood cells or lymphocytes cell lines. The binding of F45D9-γ1 or F45D9-γ4 mAb was explored by immunofluoresce staining and flow cytometry analysis, in human PBMC, purified human resting T cells, activated human T cells, peripheral blood lymphocytes (PBL) derived from BALE/c mice, rat, dog and pig, and in B cell lines or PBL derived from common marmoset, cynomolgus macaque, olive baboon, rhesus macaque and chimpanzee. Resting and activated human T cells were prepared as described in Example 7. B cells lines from monkeys were obtained from Biomedical Primate Research Center (Rijswijk, The Netherlands), and were cultured in RPMI 1640 medium supplemented with 2 mM glutamax, 100 UI/mL penicillin, 100 μg/mL streptomycin and 10% fetal bovine serum, at 37° C. and 5% CO₂. After washing in PBS cells (0.2−0.4×10⁶ cells/well) were incubated in staining buffer (PBS/1% FBS) containing F45D9-γ1 or human IgG control antibodies (10-20 ug/ml) in a 96-well U-bottom plate for 30 min on ice, in a 100 ul/well volume. Cells were then washed once with staining buffer, and further incubated for 30 min on ice with 1:30 dilution of FITC-conjugated rabbit F(ab′)₂ anti-human kappa (DakoCytomation Cat. F0434) or FITC-conjugated rabbit F(ab′)₂ anti-human IgG (DakoCytomation Cat. F0056). […]

[6] = molecular target: T5, Common marmoset Fas on the cell surface; experiment: flow cytometry on the marmoset B cell line 9601, FITC anti-human IgG secondary, MFI after subtraction of the control human γ1 staining
Text: as §2

[7] = molecular target: T6, Rhesus macaque Fas on the cell surface (rhesus macaque, UniProt Q9BDP2 26-333); experiment: flow cytometry histograms (FL1-H) on rhesus macaque cells (cell type not printed on the sheet), FITC anti-human kappa or FITC anti-human IgG secondary
T6 construct: whole, on cells
T6 sequence (looked up): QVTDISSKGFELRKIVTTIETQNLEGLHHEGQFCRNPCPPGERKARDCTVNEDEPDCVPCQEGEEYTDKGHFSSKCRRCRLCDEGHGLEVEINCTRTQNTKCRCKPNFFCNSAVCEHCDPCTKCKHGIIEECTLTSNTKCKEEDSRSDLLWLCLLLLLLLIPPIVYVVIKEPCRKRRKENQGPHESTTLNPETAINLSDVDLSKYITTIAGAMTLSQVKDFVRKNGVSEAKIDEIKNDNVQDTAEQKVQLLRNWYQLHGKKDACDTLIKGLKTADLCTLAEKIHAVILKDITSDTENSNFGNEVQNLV
Text: as §2

binding result [1]: binds | binding result [2]: binds | binding result [3]: binds | Kd [4]: 0.0411 nM | EC50 (read off the curve) [5]: ~2 µg/mL | EC50 (read off the curve) [6]: ~1 µg/mL | binding result [7]: no binding
B1: F45D9-γ1 mAb (recombinant human mAb T17/B2-1G4, gamma-1 isotype) (antibody, V domains shown)
VH: QVQLQQWGAGLLKPSETLSLICAVYGGSFSTYYWTWIRQPPGKGLEWIGEINHRGTTNYSPSLKSRVTISVDTSKNHISLNLTSVTAADTALYYCARGLLWIGEGDYGLDVWGQGTTVTVSS
VL: DIQMTQSPSSLSASVGDRVTITCRASQGIRRWLAWYQQKPEKAPKSLIYAASSLQSGVPSRFSGSGSGTDFTLTISSLQPEDFATYYCQQYNSYPYTFGQGTKLEIKR
notes: Whole human IgG1 (γ1fa allotype) with human kappa light chain, made in CHO DG44 cells; also called IgG1; T17/L18/B2-1G4
